Results published in patent US11325966.

Assays:
Experiment in all cases: cell-based or functional assay
[1] = target: 92BR020 D325A (HIV-1)
[2] = target: 92BR020 H33OA (HIV-1)
[3] = target: 92BR020 N136A + N156A + N301A (HIV-1)
[4] = target: BG505 (T332N) N295A (HIV-1)
[5] = target: HIV-1 Env of pseudovirus 1056_10_TA11_1826 (HIV-1)
[6] = target: HIV-1 Env of pseudovirus 263-8 (HIV-1)
[7] = target: HIV-1 Env of pseudovirus 3103.v3.c10 (HIV-1)
[8] = target: HIV-1 Env of pseudovirus 3415.v1.c1 (HIV-1)
[9] = target: HIV-1 Env of pseudovirus 620345.c01 (HIV-1)
[10] = target: HIV-1 Env of pseudovirus 6240_08_TA5_4622 (HIV-1)
[11] = target: HIV-1 Env of pseudovirus 6244_13_B5_4576 (HIV-1)
[12] = target: HIV-1 Env of pseudovirus 6535.3 (HIV-1)
[13] = target: HIV-1 Env of pseudovirus 7030102001E5(Rev-) (HIV-1)
[14] = target: HIV-1 Env of pseudovirus 928-28 (HIV-1)
[15] = target: HIV-1 Env of pseudovirus AC10.0.29 (HIV-1)
[16] = target: HIV-1 Env of pseudovirus BF1266.431a (HIV-1)
[17] = target: HIV-1 Env of pseudovirus C4118.c09 (HIV-1)
[18] = target: HIV-1 Env of pseudovirus CAP210.2.00.E8 (HIV-1)
[19] = target: HIV-1 Env of pseudovirus CNE30 (HIV-1)
[20] = target: HIV-1 Env of pseudovirus CNE5 (HIV-1)
[21] = target: HIV-1 Env of pseudovirus CNE53 (HIV-1)
[22] = target: HIV-1 Env of pseudovirus CNE8 (HIV-1)
[23] = target: HIV-1 Env of pseudovirus Ce0393_C3 (HIV-1)
[24] = target: HIV-1 Env of pseudovirus Ce1086_B2 (HIV-1)
[25] = target: HIV-1 Env of pseudovirus Ce1172_H1 (HIV-1)
[26] = target: HIV-1 Env of pseudovirus Ce1176_A3 (HIV-1)
[27] = target: HIV-1 Env of pseudovirus Ce703010054_2A2 (HIV-1)
[28] = target: HIV-1 Env of pseudovirus Ce704809221_1B3 (HIV-1)
[29] = target: HIV-1 Env of pseudovirus Du156.12 (HIV-1)
[30] = target: HIV-1 Env of pseudovirus MS208.A1 (HIV-1)
[31] = target: HIV-1 Env of pseudovirus P1981_C5_3 (HIV-1)
[32] = target: HIV-1 Env of pseudovirus Q23.17 (HIV-1)
[33] = target: HIV-1 Env of pseudovirus Q259.d2.17 (HIV-1)
[34] = target: HIV-1 Env of pseudovirus Q842.d12 (HIV-1)
[35] = target: HIV-1 Env of pseudovirus R3265.c06 (HIV-1)
[36] = target: HIV-1 Env of pseudovirus T255-34 (HIV-1)
[37] = target: HIV-1 Env of pseudovirus T257-31 (HIV-1)
[38] = target: HIV-1 Env of pseudovirus TRO.11 (HIV-1)
[39] = target: JR-CSF G324A (HIV-1) (UniProt P20871)
[40] = target: JR-CSF I326A (HIV-1) (UniProt P20871)
[41] = target: JR-CSF N339A (HIV-1) (UniProt P20871)
[42] = target: JR-CSF N392A (HIV-1) (UniProt P20871)

Substance: PGT121 (antibody)
- IC50 in TZM-bl assay [1]: 0.006 µg/mL
- IC50 in TZM-bl assay [2]: 0.003 µg/mL
- IC50 in TZM-bl assay [3]: 0.001 µg/mL
- IC50 in TZM-bl assay [4]: 0.014 µg/mL
- IC50 in TZM-bl assay [5]: 0.034 µg/mL
- IC80 in TZM-bl assay [5]: 0.148 µg/mL
- IC50 in TZM-bl assay [6]: 0.647 µg/mL
- IC80 in TZM-bl assay [6]: 4.68 µg/mL
- IC50 in TZM-bl assay [7]: 0.024 µg/mL
- IC80 in TZM-bl assay [7]: 0.073 µg/mL
- IC50 in TZM-bl assay [8]: > 10 µg/mL
- IC80 in TZM-bl assay [8]: > 10 µg/mL
- IC50 in TZM-bl assay [9]: > 10 µg/mL
- IC80 in TZM-bl assay [9]: > 10 µg/mL
- IC50 in TZM-bl assay [10]: 0.068 µg/mL
- IC80 in TZM-bl assay [10]: 0.231 µg/mL
- IC50 in TZM-bl assay [11]: 0.172 µg/mL
- IC80 in TZM-bl assay [11]: 1.47 µg/mL
- IC50 in TZM-bl assay [12]: 0.003 µg/mL
- IC80 in TZM-bl assay [12]: 0.01 µg/mL
- IC80 in TZM-bl assay [13]: 0.042 µg/mL
- IC50 in TZM-bl assay [14]: > 10 µg/mL
- IC80 in TZM-bl assay [14]: > 10 µg/mL
- IC50 in TZM-bl assay [15]: 0.019 µg/mL
- IC80 in TZM-bl assay [15]: 0.06 µg/mL
- IC50 in TZM-bl assay [16]: > 10 µg/mL
- IC80 in TZM-bl assay [16]: > 10 µg/mL
- IC50 in TZM-bl assay [17]: > 10 µg/mL
- IC80 in TZM-bl assay [17]: > 10 µg/mL
- IC50 in TZM-bl assay [18]: > 10 µg/mL
- IC80 in TZM-bl assay [18]: > 10 µg/mL
- IC50 in TZM-bl assay [19]: 0.088 µg/mL
- IC80 in TZM-bl assay [19]: 0.288 µg/mL
- IC50 in TZM-bl assay [20]: > 10 µg/mL
- IC80 in TZM-bl assay [20]: > 10 µg/mL
- IC50 in TZM-bl assay [21]: 0.014 µg/mL
- IC80 in TZM-bl assay [21]: 0.062 µg/mL
- IC50 in TZM-bl assay [22]: > 10 µg/mL
- IC80 in TZM-bl assay [22]: > 10 µg/mL
- IC50 in TZM-bl assay [23]: > 10 µg/mL
- IC80 in TZM-bl assay [23]: > 10 µg/mL
- IC50 in TZM-bl assay [24]: 0.003 µg/mL
- IC50 in TZM-bl assay [25]: 0.007 µg/mL
- IC80 in TZM-bl assay [25]: 0.03 µg/mL
- IC80 in TZM-bl assay [26]: 0.063 µg/mL
- IC50 in TZM-bl assay [27]: > 10 µg/mL
- IC80 in TZM-bl assay [27]: > 10 µg/mL
- IC50 in TZM-bl assay [28]: 0.043 µg/mL
- IC80 in TZM-bl assay [28]: 0.285 µg/mL
- IC50 in TZM-bl assay [29]: 0.006 µg/mL
- IC80 in TZM-bl assay [29]: 0.019 µg/mL
- IC50 in TZM-bl assay [30]: > 10 µg/mL
- IC80 in TZM-bl assay [30]: > 10 µg/mL
- IC50 in TZM-bl assay [31]: 0.002 µg/mL
- IC80 in TZM-bl assay [31]: 0.009 µg/mL
- IC50 in TZM-bl assay [32]: 0.005 µg/mL
- IC80 in TZM-bl assay [32]: 0.017 µg/mL
- IC50 in TZM-bl assay [33]: 3.07 µg/mL
- IC80 in TZM-bl assay [33]: > 10 µg/mL
- IC50 in TZM-bl assay [34]: 0.01 µg/mL
- IC80 in TZM-bl assay [34]: 0.037 µg/mL
- IC50 in TZM-bl assay [35]: > 10 µg/mL
- IC80 in TZM-bl assay [35]: > 10 µg/mL
- IC50 in TZM-bl assay [36]: 2.63 µg/mL
- IC80 in TZM-bl assay [36]: > 10 µg/mL
- IC50 in TZM-bl assay [37]: > 10 µg/mL
- IC80 in TZM-bl assay [37]: > 10 µg/mL
- IC80 in TZM-bl assay [38]: 0.037 µg/mL
- IC50 in TZM-bl assay [39]: 0.044 µg/mL
- IC50 in TZM-bl assay [40]: 0.024 µg/mL
- IC50 in TZM-bl assay [41]: 0.007 µg/mL
- IC50 in TZM-bl assay [42]: 0.017 µg/mL
